From US20110092418A1 (FLOREKY INSTITUTE OF EXPERIMENTAL PHYSIOLOGY AND MEDICINE, published 2011)
No end group written: not given here.

T1: LGR7 (RXFP1) receptor (UniProt Q9HBX9 1-757, limits assumed)
T1 sequence (looked up): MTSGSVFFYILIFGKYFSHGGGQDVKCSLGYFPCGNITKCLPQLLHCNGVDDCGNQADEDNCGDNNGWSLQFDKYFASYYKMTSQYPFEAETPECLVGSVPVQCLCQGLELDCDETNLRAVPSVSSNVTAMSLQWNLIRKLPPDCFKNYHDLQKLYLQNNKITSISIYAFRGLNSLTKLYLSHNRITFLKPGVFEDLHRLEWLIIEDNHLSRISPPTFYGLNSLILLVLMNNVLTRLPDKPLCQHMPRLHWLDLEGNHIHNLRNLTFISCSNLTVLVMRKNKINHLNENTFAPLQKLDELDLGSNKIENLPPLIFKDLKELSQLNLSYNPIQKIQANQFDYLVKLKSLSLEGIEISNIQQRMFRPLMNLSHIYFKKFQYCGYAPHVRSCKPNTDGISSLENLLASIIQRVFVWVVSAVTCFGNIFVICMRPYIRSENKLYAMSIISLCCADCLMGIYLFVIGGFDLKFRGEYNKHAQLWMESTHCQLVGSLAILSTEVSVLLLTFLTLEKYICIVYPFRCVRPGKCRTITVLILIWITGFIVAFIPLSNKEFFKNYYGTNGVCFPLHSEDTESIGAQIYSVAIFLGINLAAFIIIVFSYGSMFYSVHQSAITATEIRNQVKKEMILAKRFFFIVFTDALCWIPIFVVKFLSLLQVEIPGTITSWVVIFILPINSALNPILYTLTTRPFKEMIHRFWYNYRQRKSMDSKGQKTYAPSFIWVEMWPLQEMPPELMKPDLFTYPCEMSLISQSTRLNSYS


What was measured:
LGR7 (RXFP1) receptor [1] = biological target: T1, LGR7 (RXFP1) receptor; experiment: cell-based or functional assay
LGR7 (RXFP1) receptor [2] = biological target: T1, LGR7 (RXFP1) receptor; experiment: whole cell competition binding against 100 pM [125I]-H2 relaxin, LGR7-transfected HEK293T cells
Protocol: Non-specific binding was determined by addition of excess unlabelled relaxin (500 nM). Data were analysed using GraphPad Prism.

LGR8 (RXFP2) receptor = LGR8 (RXFP2) receptor (UniProt Q8WXD0 1-754, limits assumed); experiment: cell-based or functional assay
Chain of LGR8 (RXFP2) receptor (Q8WXD0 whole entry): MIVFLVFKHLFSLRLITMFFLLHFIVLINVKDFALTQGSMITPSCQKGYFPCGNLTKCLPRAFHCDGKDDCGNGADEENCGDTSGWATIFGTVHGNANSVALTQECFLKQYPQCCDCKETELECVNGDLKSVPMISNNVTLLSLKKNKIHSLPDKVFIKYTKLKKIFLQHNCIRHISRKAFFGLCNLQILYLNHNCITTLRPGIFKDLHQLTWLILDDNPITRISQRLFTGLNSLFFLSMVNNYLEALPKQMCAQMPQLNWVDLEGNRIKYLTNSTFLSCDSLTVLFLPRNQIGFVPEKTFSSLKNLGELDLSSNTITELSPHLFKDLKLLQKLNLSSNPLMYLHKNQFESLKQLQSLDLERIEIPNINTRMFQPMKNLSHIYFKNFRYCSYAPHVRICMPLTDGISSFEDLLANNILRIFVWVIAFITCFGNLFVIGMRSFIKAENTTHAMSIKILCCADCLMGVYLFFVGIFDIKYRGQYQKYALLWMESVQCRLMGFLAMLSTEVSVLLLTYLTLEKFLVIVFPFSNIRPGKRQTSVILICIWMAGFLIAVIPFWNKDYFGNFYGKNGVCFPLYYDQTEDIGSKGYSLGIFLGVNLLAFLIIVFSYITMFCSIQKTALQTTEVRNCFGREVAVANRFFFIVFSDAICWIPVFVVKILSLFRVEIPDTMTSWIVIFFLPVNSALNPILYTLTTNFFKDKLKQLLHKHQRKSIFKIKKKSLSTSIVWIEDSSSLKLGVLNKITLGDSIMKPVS

Binder	LGR7 cAMP pEC50 (LGR7 (RXFP1) receptor [1])	pKi (LGR7 (RXFP1) receptor [2])	LGR8 cAMP pEC50 (LGR8 (RXFP2) receptor)
chimeric relaxin polypeptide H2 B chain/INSL5 A chain (designed binder, Synthetic two-chain chimera; The synthesis protocol is detailed only for H2-B/H1-A; also called H2-B/INSL5-A) chain 1: DSWMEEVIKLCGRELVRAQIAICGMSTWS chain 2: DLQTLCCTDGCSMTDLSALC	6.37 pEC50	5.31 pKi	
chimeric relaxin polypeptide H2 B chain/INSL3 A chain (designed binder, Synthetic two-chain chimera; The synthesis protocol is detailed only for H2-B/H1-A; also called H2-B/INSL3-A) chain 1: DSWMEEVIKLCGRELVRAQIAICGMSTWS chain 2: AAATNPARYCCLSGCTQQDLLTLCPY	< 6 pEC50	6.21 pKi	> 6 pEC50
human relaxin 2 (H2), wild-type; A + B chain (ligand, disulfide (positions not given here); also: A and B chains joined by disulphide bonds, places not given here, Two-chain peptide hormone, A and B chains joined by disulphide bonds; also called H2 relaxin) chain 1: DSWMEEVIKLCGRELVRAQIAICGMSTWS chain 2: QLYSALANKCCHVGCTKRSLARFC	10.3 pEC50	9.03 pKi	9.13 pEC50
chimeric relaxin polypeptide H2 B chain/H3 relaxin A chain (designed binder, Synthetic two-chain chimera; The synthesis protocol is detailed only for H2-B/H1-A; also called H2-B/H3-A) chain 1: DSWMEEVIKLCGRELVRAQIAICGMSTWS chain 2: DVLAGLSSSCCKWGCSKSEISSLC	8.1 pEC50	6.8 pKi	5.34 pEC50
human relaxin 3 (H3), wild-type; A + B chain (ligand, disulfide (positions not given here); also: A and B chains joined by disulphide bonds, places not given here, domain: B chain; Two-chain peptide hormone, A and B chains joined by disulphide bonds; also called H3 relaxin) chain 1: RAAPYGVRLCGREFIRAVIFTCGGSRW chain 2: DVLAGLSSSCCKWGCSKSEISSLC	9.36 pEC50	7.88 pKi	
